Source: patent US20110052585A1 (Sanofi, published 2011)

Molecular target: T1, rhIL-23 (human, UniProt Q9NPF7 20-189; P29460 23-328)
T1 construct: Recombinant human IL-23 coated on immunoassay plates; also called IL-23 ligand
T1 sequence (looked up) 1: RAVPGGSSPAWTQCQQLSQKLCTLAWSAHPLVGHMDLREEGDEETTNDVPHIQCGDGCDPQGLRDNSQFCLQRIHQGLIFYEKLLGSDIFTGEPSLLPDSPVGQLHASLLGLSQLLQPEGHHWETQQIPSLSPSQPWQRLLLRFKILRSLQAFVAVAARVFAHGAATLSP
T1 sequence (looked up) 2: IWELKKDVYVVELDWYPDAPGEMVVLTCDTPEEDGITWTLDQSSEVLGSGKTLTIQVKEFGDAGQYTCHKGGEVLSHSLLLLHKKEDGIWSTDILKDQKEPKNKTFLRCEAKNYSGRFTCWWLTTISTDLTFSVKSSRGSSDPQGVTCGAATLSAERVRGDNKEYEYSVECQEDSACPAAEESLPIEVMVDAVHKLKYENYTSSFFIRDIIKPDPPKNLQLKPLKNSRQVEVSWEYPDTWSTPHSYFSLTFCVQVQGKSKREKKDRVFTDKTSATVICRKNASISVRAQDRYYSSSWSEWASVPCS
Test: ELISA, ligand coated on plate, conditioned medium with soluble receptor
Experimental: Ligand Binding Assays: Conditioned media containing […] were generated in transfected or virally-infected 293 cells. Receptor concentrations in collected media were determined by ELISA and Western blot. Ligand binding assays were performed on immunoassay plates coated with target ligand rhIL-17 or rhIL-23. Typically conditioned media containing serial dilutions of soluble receptor were incubated with immobilized ligand 1-2 hours at room temperature. Unbound ligand was washed away and bound protein was detected and quantified with receptor-specific detection antibodies, as is performed in an ELISA.
In order to test the ability of the soluble IL-17 and IL-23 receptor fusions to bind to their respective ligands, the following experiments were conducted. In one experiment, the ability of the soluble receptors to bind immobilized ligands was explored. Conditioned media for each receptor was generated from Ad-infected A459 cells and quantified by ELISA as described. Binding was measured on ELISA plates pre-coated with IL-23 or IL-17 ligand. Relative binding was compared to purchased receptor/Fc chimeras (R&D Systems, Minneapolis, Minn.). The control IL-17R/Fc from R&D contains human IL-17R(Met1-Trp320) fused to IEGRMD and human IgG1(Pro100-Lys330). […]

B1: sIL23R-9gly-CH3 (Fc fusion)
chain: GITNINCSGHIWVEPATIFKMGMNISIYCQAAIKNCQPRKLHFYKNGIKERFQITRINKTTARLWYKNFLEPHASMYCTAECPKHFQETLICGKDISSGYPPDIPDEVTCVIYEYSGNMTCTWNAGKLTYIDTKYVVHVKSLETEEEQQYLTSSYINISTDSLQGGKKYLVWVQAANALGMEESKQLQIHLDDIVIPSAAVISRAETINATVPKTIIYWDSQTTIEKVSCEMRYKATTNQTWNVKEFDTNFTYVQQSEFYLEPNIKYVFQVRCQETGKRYWQPWSSPFFHKTPETVPQVTSKAFQHDTWNSGLTVASISTGHLTGGGGGGGGGQPREPQVYTLPPSRDELTKNQVSLTCLVKGFYPSDIAVEWESNGQPENNYKTTPPVLDSDGSFFLYSKLTVDKSRWQQGNVFSCSVMHEALHNHYTQKSLSLSPGK
notes: Fusion to the CH3 domain of human IgG1 only, with no hinge or CH2; It was tested as conditioned medium from adenovirus-infected cells; also called hIL-23R-9gly-CH3 chimera; soluble IL-23r
B1: binds.
